Our source for the MFI (corrected value obtained by dividing with an isotype control) (MFI / MFI of isotype control) values is US20180230212A1.

For assay [1], the target named is human CD98hc as expressed on normal blood cells, HUVEC cells and untreated U937 / THP-1 cells (human CD98hc having an N-glycan) (human) (UniProt P08195). The assay is described as follows: FACS on untreated THP-1 cells, MEM-108 at 2.5 µg/ml, PE anti-mouse IgG.
The target of assay [2] is human CD98hc with incomplete glycosylation (cells treated with tunicamycin, thapsigargin or bortezomib) (human) (UniProt P08195). In words: FACS on tunicamycin-treated U937 cells, MEM-108 at 2.5 µg/ml, PE anti-mouse IgG.
Assay [3] has the same target. The assay is described as follows: FACS on tunicamycin-treated THP-1 cells, MEM-108 at 2.5 µg/ml, PE anti-mouse IgG.
Assay [4] concerns the target human CD98hc as expressed on normal blood cells, HUVEC cells and untreated U937 / THP-1 cells (human CD98hc having an N-glycan) (human) (UniProt P08195). In words: FACS on untreated U937 cells, MEM-108 at 2.5 µg/ml, PE anti-mouse IgG.

For the substance “MEM-108 antibody (anti-human CD98 antibody, Biolegend)”, the MFI (corrected value obtained by dividing with an isotype control) (MFI / MFI of isotype control) was found to be 29.4 in assay [1], 8.3 in assay [2], 29.1 in assay [3] and 11.8 in assay [4].
